Experimental data from US20060104980A1.

What was measured:
[1] = molecular target: HCV E2 protein of genotype 1a expressed by vaccinia virus construct Q1a (Hepatitis C virus genotype 1a); test: competition on GNA-captured E2; 20 µg/ml competitor against biotinylated CBH-4G
[2] = molecular target: HCV E2 protein of genotype 1b expressed by vaccinia virus construct Q1b (Hepatitis C virus genotype 1b); test: competition ELISA; competitor CBH-2 against biotinylated CBH-5
[3] = molecular target: HCV E2 protein of genotype 1a expressed by vaccinia virus construct Q1a (Hepatitis C virus genotype 1a); test: as above
[4] = molecular target: HCV 1b E2 construct sf1b-E2 (amino acids 384-661 in pDisplay) (influenza virus; Hepatitis C virus genotype 1b); test: GNA capture ELISA, HEK-293 extracts
[5] = molecular target: HCV 1b E2 deletion construct pDC-644 (Hepatitis C virus genotype 1b); test: GNA capture ELISA, HEK-293 extracts
[6] = molecular target: HCV E2 protein of genotype 1b expressed by vaccinia virus construct Q1b (Hepatitis C virus genotype 1b); test: competition ELISA; 20 µg/ml competitor against 2 µg/ml biotinylated CBH-2
[7] = molecular target: HCV E2 protein of genotype 2a expressed by vaccinia virus construct Q2a (Hepatitis C virus genotype 2a); test: as above
[8] = molecular target: HCV E2 protein of genotype 1a expressed by vaccinia virus construct Q1a (Hepatitis C virus genotype 1a); test: as above
[9] = molecular target: HCV E2 protein of genotype 2b expressed by vaccinia virus construct Q2b (Hepatitis C virus genotype 2b); test: as above
[10] = molecular target: HCV 1b E2 construct sf1b-E2 (amino acids 384-661 in pDisplay) (influenza virus; Hepatitis C virus genotype 1b); test: flow cytometry, CHO cells expressing sf1b-E2, 10 ug/ml
[11] = molecular target: HCV E2 1a protein produced in mammalian cells (Rosa et al.) (Hepatitis C virus genotype 1a); test: NOB assay, inhibition of E2 binding to CD81 expressing Molt-4 cells, flow cytometry
[12] = molecular target: HCV 1b E2 deletion construct pDN-447 (Hepatitis C virus genotype 1b) (UniProt P29846); test: GNA capture ELISA, HEK-293 extracts
[13] = molecular target: HCV 1b E2 deletion construct pDN-470 (Hepatitis C virus genotype 1b) (UniProt Q9WMX2); test: GNA capture ELISA, HEK-293 extracts
[14] = molecular target: HCV E2 1a protein produced in mammalian cells (Rosa et al.) (Hepatitis C virus genotype 1a); test: NOB assay
[15] = molecular target: HCV 1b E2 deletion construct pDC-579 (Hepatitis C virus genotype 1b); test: flow cytometry, transiently transfected HEK-293 cells, 10 ug/ml
[16] = molecular target: HCV 1b E2 deletion construct pDC-644 (Hepatitis C virus genotype 1b); test: as above
[17] = molecular target: HCV 1b E2 deletion construct pDN-447 (Hepatitis C virus genotype 1b) (UniProt P29846); test: as above
[18] = molecular target: HCV 1b E2 deletion construct pDN-470 (Hepatitis C virus genotype 1b) (UniProt Q9WMX2); test: as above
[19] = molecular target: HCV 1b E2 (Q1b) bound to GST-CD81-LEL (Hepatitis C virus genotype 1b; human) (UniProt P60033); test: ELISA, 1b E2 captured by CD81-LEL; 50% of maximum binding
[20] = molecular target: HCV E2 protein of genotype 1b expressed by vaccinia virus construct Q1b (Hepatitis C virus genotype 1b); test: competition ELISA; competitor CBH-5 against biotinylated CBH-2
[21] = molecular target: HCV E2 protein of genotype 2a expressed by vaccinia virus construct Q2a (Hepatitis C virus genotype 2a); test: as above
[22] = molecular target: HCV E2 protein of genotype 1a expressed by vaccinia virus construct Q1a (Hepatitis C virus genotype 1a); test: as above
[23] = molecular target: HCV E2 protein of genotype 2b expressed by vaccinia virus construct Q2b (Hepatitis C virus genotype 2b); test: as above
[24] = molecular target: HCV E2 protein of genotype 1b expressed by vaccinia virus construct Q1b (Hepatitis C virus genotype 1b); test: competition ELISA; 25 µg/ml competitor against 5 µg/ml biotinylated CBH-5
[25] = molecular target: HCV E2 protein of genotype 1a expressed by vaccinia virus construct Q1a (Hepatitis C virus genotype 1a); test: as above
[26] = molecular target: HCV 1b E2 construct sf1b-E2 (amino acids 384-661 in pDisplay) (influenza virus; Hepatitis C virus genotype 1b); test: flow cytometry, CHO cells expressing sf1b-E2
[27] = molecular target: denatured HCV 1b E2 protein (Q1b) (Hepatitis C virus genotype 1b); test: GNA capture ELISA, denatured against native E2 (FIG. 9)

HMAb CBH-2 (antibody)
percent inhibition of biotinylated CBH-4G binding [1]: < 50%
percent inhibition of biotinylated CBH-5 binding [2]: 50%
percent inhibition of biotinylated CBH-5 binding [3]: 50%
OD [4]: > 0.5 od
OD [5]: 0.1 to 0.5 od
percent inhibition of biotinylated CBH-2 binding [6]: > 75%
percent inhibition of biotinylated CBH-2 binding [7]: > 75%
percent inhibition of biotinylated CBH-2 binding [8]: > 75%
percent inhibition of biotinylated CBH-2 binding [9]: > 75%
mean fluorescence [10]: 338
IC50 [11]: 5 µg/mL

HMAb CBH-4B (antibody)
percent inhibition of biotinylated CBH-4G binding [1]: < 50%
OD [4]: > 0.5 od
OD [5]: > 0.5 od
OD [12]: > 0.5 od
OD [13]: > 0.5 od
IC50 [14]: > 25 µg/mL
mean fluorescence [15]: 2
mean fluorescence [16]: 18
mean fluorescence [17]: 21
mean fluorescence [18]: 9
mean fluorescence [10]: 241
EC50 [19]: 0.4 µg/mL

HMAb CBH-5 (antibody)
percent inhibition of biotinylated CBH-4G binding [1]: < 50%
OD [4]: > 0.5 od
OD [5]: > 0.5 od
percent inhibition of biotinylated CBH-2 binding [20]: 80%
percent inhibition of biotinylated CBH-2 binding [21]: 80%
percent inhibition of biotinylated CBH-2 binding [22]: 80%
percent inhibition of biotinylated CBH-2 binding [23]: 80%
percent inhibition of biotinylated CBH-5 binding [24]: 85%
percent inhibition of biotinylated CBH-5 binding [25]: 85%
percent inhibition of biotinylated CBH-2 binding [6]: > 75%
percent inhibition of biotinylated CBH-2 binding [7]: > 75%
percent inhibition of biotinylated CBH-2 binding [8]: > 75%
percent inhibition of biotinylated CBH-2 binding [9]: > 75%
mean fluorescence [15]: 2
mean fluorescence [16]: 28
mean fluorescence [17]: 2
mean fluorescence [18]: 2
mean fluorescence [10]: 546
IC50 [11]: 2 µg/mL

HMAb CBH-7 (antibody)
percent inhibition of biotinylated CBH-4G binding [1]: < 50%
OD [4]: > 0.5 od
OD [5]: > 0.5 od
OD [12]: > 0.5 od
OD [13]: > 0.5 od
percent inhibition of biotinylated CBH-2 binding [8]: 60%
mean fluorescence [15]: 2
mean fluorescence [16]: 27
mean fluorescence [17]: 26
mean fluorescence [18]: 14
mean fluorescence [10]: 303
IC50 [11]: 7 µg/mL

HMAb CBH-8C (antibody)
percent inhibition of biotinylated CBH-4G binding [1]: < 50%
OD [4]: > 0.5 od
OD [5]: > 0.5 od
percent inhibition of biotinylated CBH-2 binding [6]: > 75%
percent inhibition of biotinylated CBH-2 binding [7]: > 75%
percent inhibition of biotinylated CBH-2 binding [8]: > 75%
percent inhibition of biotinylated CBH-2 binding [9]: > 75%
mean fluorescence [10]: 282
IC50 [11]: 10 µg/mL

HMAb CBH-8E (antibody)
percent inhibition of biotinylated CBH-4G binding [1]: < 50%
OD [4]: > 0.5 od
OD [5]: 0.1 to 0.5 od
percent inhibition of biotinylated CBH-5 binding [24]: 75%
percent inhibition of biotinylated CBH-5 binding [25]: 75%
percent inhibition of biotinylated CBH-2 binding [6]: > 75%
percent inhibition of biotinylated CBH-2 binding [7]: > 75%
percent inhibition of biotinylated CBH-2 binding [8]: > 75%
percent inhibition of biotinylated CBH-2 binding [9]: > 75%
mean fluorescence [10]: 408
IC50 [11]: 8 µg/mL

HMAb CBH-17 (antibody)
percent inhibition of biotinylated CBH-4G binding [1]: < 50%
fold reduced staining relative to the other HMAbs [26]: 10 fold
OD [4]: > 0.5 od
OD [12]: > 0.5 od
OD [13]: > 0.5 od
percent of reactivity retained with denatured E2 [27]: 90%
IC50 [14]: > 25 µg/mL
mean fluorescence [10]: 23
EC50 [19]: 3 µg/mL
